According to the supplement of paper PMC9170038:

Test system: MS2 coat protein
Assay: apparent KD of MS2 coat protein; designed switch direction (-1 OFF switch, 1 ON switch): -1; higher = weaker reporter binding
How it was run: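 Transcription of designed RNA switches on Illumina chips was done by stalled E. coli RNA polymerase. SNAP-549-labelled MS2 coat protein was then titrated in doubling steps from 0.7 or 1.5 nM to 3 µM, with steps of 0.8–1.5 h at the lowest and 10–20 min at the highest concentration. The per-design median over clusters of curve-fitted normalised fluorescence is reported as apparent KD.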

[1] = Eterna round: R95, input ligand: microRNA oligo, concentration not stated
[2] = Eterna round: R95, input ligand: FMN 200 uM
[3] = Eterna round: R95, input ligand: none
[4] = input ligand: microRNA oligo, concentration not stated

Sequence	apparent KD of MS2 coat protein (input ligand: FMN 200 uM)	apparent KD of MS2 coat protein (input ligand: none)	apparent KD of MS2 coat protein [1]	apparent KD of MS2 coat protein [2]	apparent KD of MS2 coat protein [3]	apparent KD of MS2 coat protein [4]
AAACAGGAUGUAAGGAUAUCCAAGUGCUAAGCACGGGAGAAGGUACAUGAGGAUCACCCAUGUGGUCUUCCAAU [Quesardi] (Eterna round: R97, puzzle: Brourd's mod of Exclusion 4)	253 nM	120 nM				
AAACCUAUAGGAUAUACAUGAGGAUCACCCAUGUUGCGAUUUUUUAGGUAACAGAUCCGUAGAAGGGUAGGUCA [Reinesce] (puzzle: Exclusion 3)			38.1 nM			
AAACCUAUAGGAUAUACAUGAGGAUCACCCAUGUUGCGAUUUUUUAGGUAACAGAUCCGUAGAAGGGUAGGUUA [Anzaoror] (puzzle: Exclusion 3)			24.4 nM			
AAACCUCGUGUAAGGAUAUCAAGGCUUAGCGGGUGUGAGAAGGUACAUGAGGAUCACCCAUGUCAUGAUUUACG [mod2 score 1 eternabot] (Eterna round: R97, puzzle: Brourd's mod of Exclusion 4)	798 nM	252 nM				
AAACCUGCCCAUGACCGCAAGCUUUUUACUUGUCUUACCACAUGAGGAUCACCCAUGUGACAUGGGCUCCUUAUAAA [Ceedbe] (puzzle: Sensor v3, turn-off variant 2)			4.81 nM	12.8 nM	11.2 nM	
AAACGACAUGAGGAUCACCCAUGUGGCCCUUAGACUCGUAUCGAGGAUAUCCAGGGCCGGGCCGUGGAGAAGGCGAAUUAAAAU [Cetele] (Eterna round: R96, puzzle: Exclusion NG 3)	63.8 nM	43.6 nM				28.8 nM
AAACGCUGAGGAUAUGCGCCGAGGCACAUGAGGAUCACCCAUGUGACCUCACUGCCUUGAGCAGAAGGCAGAAAAU [Vezaatinxe] (puzzle: Exclusion 5)			56.4 nM	137 nM	53 nM	
AAACGGCAAUAAGGAUAUGCUUACCUGGGUCGUCUUCAAACAUGAGGAUCACCCAUGUAGUCGACGCAGAAGGUAUUCAAAGCC [ExNG2 first] (Eterna round: R96, puzzle: Exclusion NG 2)	13.5 nM	12.8 nM				10.4 nM
AAACGGCGGAUCGUGGCUUUUUGCUCGUCUUGUGCUACAACAUGAGGAUCACCCAUGUAGAGGUGAUCCGUUGUAAA [Grok-var2-18 mod JAL] (puzzle: Sensor v3, turn-off variant 2)			17.1 nM	28 nM	38.3 nM	
AAACGGGACUGAGGAUAUUCGUUCGAACACGAAGAAGAAGGUAGUGUCAGGGACAUGAGGAUCACCCAUGUGAACUCAGUCCCA [Erinle] (Eterna round: R96, puzzle: Exclusion NG 1)	32.5 nM	32.3 nM				21 nM
AAACUGCAUGUGAGGAUAUGCACCAGCUAAGCCGGGCAGAAGGCACAUGAGGAUCACCCAUGUCAUCCUAUUGC [Latibibe] (puzzle: Brourd's mod of Exclusion 4)			11.6 nM	26.5 nM	14.4 nM	
AAAGAACAUGAGGAUCACCCAUGUAAGGAUAUGCAAAGAAAGAAAGAAGAAAGAGAAAGCAGAAGGUACAAGAA [JR_Exclu1_Sub071] (puzzle: Exclusion 1)			44.1 nM	34.4 nM	36.8 nM	
AAAGAACUAGGAUAUACAUGAGGAUCACCCAUGUGCAGCUUAACGGCUCACACCUUAUGUAGAAGGAGUGACCG [Riorenar] (puzzle: Exclusion 3)			16 nM			
AAAGAUCAGGUGAGGAUAUACAUAUCGAAAGAUAUGUAGAAGGCACAUGAGGAUCACCCAUGUAUAAGGUUACC [Alacar 2] (Eterna round: R97, puzzle: Brourd's mod of Exclusion 4)	313 nM	52.1 nM				
AAAGGGCAAGCAUGAUCCCACAUGAGGAUCACCCAUGUGUUCGUCUUAUAGGCUGCUGAGGCUUUUGCCUCGGUGGC [LRO Sensor-off var1-04 loose mod of D91 from Mat747] (Eterna round: R97, puzzle: Sensor, turn-off variant 1)	484 nM	567 nM				
AAAUAACAAGCAAAAAACCACAUGAGGAUCACCCAUGUAAAGGGUGAAGUUCGCACCCAAAAAUAAAAUAAAAAAUA [Mat - Sensor v2 - Eli mod - 173] (Eterna round: R96, puzzle: Sensor v2, turn-off variant)	29.1 nM	28.3 nM				75 nM
AAAUAACAAGCGAGAUCCUACAUGAGGAUCACCCAUGUGCUCGUCUUAUAAAGUACUAUCACGAAAGUGAUAGUACA [Sensor 3, v1 - 13] (puzzle: Sensor v3, turn-off variant 1)			50.8 nM	16.4 nM	16.3 nM	

Sequence	apparent KD of MS2 coat protein (input ligand: FMN 200 uM)	apparent KD of MS2 coat protein (input ligand: none)	apparent KD of MS2 coat protein [1]	apparent KD of MS2 coat protein [2]	apparent KD of MS2 coat protein [3]	apparent KD of MS2 coat protein [4]
AAAUAACUAGGAUAUCGAGGCACAGACAUGAGGAUCACCCAUGUGUGGUCUUCGUGCUUACGAGAAGGAGUACGGC [Teceri] (Eterna round: R96, puzzle: Exclusion 5)	199 nM	305 nM				175 nM
AAAUAACUAGGAUAUCGAGGCACAGACAUGAGGAUCACCCAUGUGUGGUCUUCGUGCUUACGAGAAGGAGUACGGC [Teceri] (puzzle: Exclusion 5)			168 nM	55.6 nM	83.3 nM	
AAAUAAUAGAUAAAAUAAAACAUGAGGAUCACCCAUGUGGGAUGCUGAGGGUGAUACAAGCUUUUUGCUCGUCUUAU (puzzle: Sensor v3, turn-off variant 1)			57.7 nM	210 nM	182 nM	
AAAUAAUAGAUAAAAUAACACAUGAGGAUCACCCAUGUGCGAUGUUGAGGGUGAUACAGGCUUUUUGCUCGUCUUAU (Eterna round: R96, puzzle: Sensor v3, turn-off variant 1)	155 nM	133 nM				415 nM
AAAUAAUAGAUAAAAUAACACAUGAGGAUCACCCAUGUGCGAUGUUGAGGGUGAUACAGGCUUUUUGCUCGUCUUAU (puzzle: Sensor v3, turn-off variant 1)			225 nM	98.7 nM	132 nM	
AAAUAAUAGAUAAAAUAAUACAUGAGGAUCACCCAUGUGGGAUGCUGAGGGUGAUACAGGCUUUUUGCUCGUCUUAU (puzzle: Sensor v3, turn-off variant 1)			16.3 nM	78.7 nM	99.9 nM	
AAAUACAAGCAAAGAUCUUACAUGAGGAUCACCCAUGUGCUCGUCUUGUAAAGUACUAUCACGAAAGUGAUAGUACA [Sensor 3, v1 - 30] (puzzle: Sensor v3, turn-off variant 1)			98.8 nM	23.1 nM	20.4 nM	
AAAUACAAGCAAAGAUCUUACAUGAGGAUCACCCAUGUGCUCGUUUUAUAAAGUACUAUCACGAAAGUGAUAGUACA [Sensor 3, v1 - 31] (puzzle: Sensor v3, turn-off variant 1)			93.4 nM	25 nM	28.3 nM	
AAAUACAAGUAAAGAUCCUACAUGAGGAUCACCCAUGUGUUCGUCUUAUAAAGUACUAUCACGAAAGUGAUAGUACA [Sensor 3, v1 - 24] (puzzle: Sensor v3, turn-off variant 1)			131 nM	89 nM	131 nM	
AAAUACAAGUAAAGGUUCUACAUGAGGAUCACCCAUGUGCUCGUCUUAUAAAGUACUAUCACGAAAGUGAUAGUACA [Sensor 3, v1 - 39] (puzzle: Sensor v3, turn-off variant 1)			92.5 nM	19.2 nM	16 nM	
AAAUACAGAGGAUAUAUGGAAAACGACUUGAGGAUCACCCAAGUACGGGUGGCCUAACCCGUAGAAGGCUGCCAAA [Tibece] (Eterna round: R97, puzzle: Exclusion 5)	72.5 nM	30.6 nM				
AAAUACCGGUGAGGAUAUUUUUAAUAGAGCUUUAUGAUAUACAUGAGGAUCACCCAUGUUACGUUAAAGAAGGCAUCGGAUAAA [Mat - Exclusion NG 2 - Mod of JL - D98] (Eterna round: R96, puzzle: Exclusion NG 2)						13.9 nM
AAAUAGCUUGAGGAUAUUGGAUUGGAUUUAGUGCGAGAAGGCAAGACAUGAGGAUCACCCAUGUUGUGUUGGGA [EX6 #12] (Eterna round: R97, puzzle: Exclusion 6)	72.7 nM	55.1 nM				
AAAUAGUUAGGAUAUACAUGAGGAUCACCCAUGUAGGGUUCCGUCAUGCAGAAAAUGCGUAGAAGGAACUAUCC [EX3 A.22] (Eterna round: R97, puzzle: Exclusion 3)	16.6 nM	17.6 nM				
AAAUAUCAUGUAGGAUAUGGAAGGCGAACCUAUCCAGAAGGACAUGAGGAUCACCCAUGUGCUGAGUUGUCCGUAGACAGCUCU [Ex NG1 #3] (Eterna round: R96, puzzle: Exclusion NG 1)	168 nM	31 nM				27.1 nM
AAAUCGCAAGGAUAUCGUCAGUCUGACAUGAGGAUCACCCAUGUUAUCUUGGUAUCAGAGCGAGAAGGUGCAAAGU [Erbied] (Eterna round: R96, puzzle: Exclusion 5)	10.8 nM	14.6 nM				9.45 nM
AAAUCGCAAGGAUAUCGUCAGUCUGACAUGAGGAUCACCCAUGUUAUCUUGGUAUCAGAGCGAGAAGGUGCAAAGU [Erbied] (puzzle: Exclusion 5)			12.5 nM			
